Data published in patent US20040203101A1 (Human Genome Sciences, published 2004).

How the values were obtained:
[1] = molecular target: tissue-type plasminogen activator, tPA (Genentech) (human, UniProt P00750 36-562); test: cell-based or functional assay
bovine beta trypsin [2] = molecular target: T1, bovine beta trypsin (bovine, UniProt P00760 24-246); test: cell-based or functional assay
[3] = molecular target: urokinase-type plasminogen activator, uPA (Serono) (UniProt P00749 21-431, limits assumed); test: cell-based or functional assay
human two-chain tPA [4] = molecular target: T2, human two-chain tPA (human, UniProt P00750 36-310; P00750 311-562); test: comparison of rates of inhibition; reference PN-1 with tPA
T2 construct: Two-chain (cleaved) form; also called tctPA
T2 sequence (P00750 36-310 limits assumed, chain 1 of 2): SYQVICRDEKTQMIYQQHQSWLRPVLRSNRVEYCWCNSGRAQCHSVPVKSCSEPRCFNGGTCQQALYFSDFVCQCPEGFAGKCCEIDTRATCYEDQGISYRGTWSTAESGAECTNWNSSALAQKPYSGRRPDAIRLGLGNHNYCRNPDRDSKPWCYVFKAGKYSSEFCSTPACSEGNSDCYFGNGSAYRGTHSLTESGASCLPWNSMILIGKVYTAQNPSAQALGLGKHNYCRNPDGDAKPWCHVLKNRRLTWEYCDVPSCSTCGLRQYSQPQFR
T2 sequence (P00750 311-562 limits assumed, chain 2 of 2): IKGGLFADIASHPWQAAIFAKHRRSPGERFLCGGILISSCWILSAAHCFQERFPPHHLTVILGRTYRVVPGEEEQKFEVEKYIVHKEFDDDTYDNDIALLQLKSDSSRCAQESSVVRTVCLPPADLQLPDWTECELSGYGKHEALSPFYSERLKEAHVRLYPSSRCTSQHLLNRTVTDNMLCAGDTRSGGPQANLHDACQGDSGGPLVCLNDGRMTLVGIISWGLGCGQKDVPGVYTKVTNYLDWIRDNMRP

human two-chain tPA [5] = molecular target: T2, human two-chain tPA; test: comparison of rates of inhibition; reference PAI-1 with tPA
human two-chain tPA [6] = molecular target: T2, human two-chain tPA; test: comparison of rates of inhibition from Table I; reference BAIT with uPA
plasmin = plasmin (Homo sapiens (Human), UniProt P00747 97-580; P00747 581-810, Two chains joined by disulfide bonds after cleavage of plasminogen at Arg580-Val581 (precursor count).); test: kinetic constants for the interaction of BAIT with proteinases; method not described
plasmin, sequence (P00747 97-580 limits assumed, form in doubt, chain 1 of 2): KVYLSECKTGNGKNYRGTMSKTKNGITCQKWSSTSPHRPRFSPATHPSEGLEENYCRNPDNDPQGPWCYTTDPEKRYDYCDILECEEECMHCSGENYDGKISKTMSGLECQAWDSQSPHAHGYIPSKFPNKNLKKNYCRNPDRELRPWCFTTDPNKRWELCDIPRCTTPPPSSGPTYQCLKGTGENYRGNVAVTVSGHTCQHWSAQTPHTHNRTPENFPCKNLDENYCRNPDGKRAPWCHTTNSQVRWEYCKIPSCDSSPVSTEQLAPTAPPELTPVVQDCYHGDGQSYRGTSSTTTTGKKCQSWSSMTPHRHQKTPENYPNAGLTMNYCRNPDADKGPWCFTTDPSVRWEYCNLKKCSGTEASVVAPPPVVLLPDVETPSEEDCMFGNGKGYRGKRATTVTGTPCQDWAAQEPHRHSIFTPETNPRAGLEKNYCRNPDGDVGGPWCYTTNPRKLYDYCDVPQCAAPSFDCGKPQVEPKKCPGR
plasmin, sequence (P00747 581-810 limits assumed, form in doubt, chain 2 of 2): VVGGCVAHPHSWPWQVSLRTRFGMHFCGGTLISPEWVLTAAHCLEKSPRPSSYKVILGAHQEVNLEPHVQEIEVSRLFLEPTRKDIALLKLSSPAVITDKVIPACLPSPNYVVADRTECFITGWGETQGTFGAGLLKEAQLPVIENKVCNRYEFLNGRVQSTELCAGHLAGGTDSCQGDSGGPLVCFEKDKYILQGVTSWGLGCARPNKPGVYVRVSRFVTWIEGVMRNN

thrombin = thrombin (Homo sapiens (Human), UniProt P00734 328-363; P00734 364-622); test: as above
human two-chain tPA [7] = molecular target: T2, human two-chain tPA; test: as above
human single-chain tPA = molecular target: T3, human single-chain tPA (human, UniProt P00750 36-562); test: as above
T3 construct: also called sctPA
T3 sequence (P00750 36-562 limits assumed): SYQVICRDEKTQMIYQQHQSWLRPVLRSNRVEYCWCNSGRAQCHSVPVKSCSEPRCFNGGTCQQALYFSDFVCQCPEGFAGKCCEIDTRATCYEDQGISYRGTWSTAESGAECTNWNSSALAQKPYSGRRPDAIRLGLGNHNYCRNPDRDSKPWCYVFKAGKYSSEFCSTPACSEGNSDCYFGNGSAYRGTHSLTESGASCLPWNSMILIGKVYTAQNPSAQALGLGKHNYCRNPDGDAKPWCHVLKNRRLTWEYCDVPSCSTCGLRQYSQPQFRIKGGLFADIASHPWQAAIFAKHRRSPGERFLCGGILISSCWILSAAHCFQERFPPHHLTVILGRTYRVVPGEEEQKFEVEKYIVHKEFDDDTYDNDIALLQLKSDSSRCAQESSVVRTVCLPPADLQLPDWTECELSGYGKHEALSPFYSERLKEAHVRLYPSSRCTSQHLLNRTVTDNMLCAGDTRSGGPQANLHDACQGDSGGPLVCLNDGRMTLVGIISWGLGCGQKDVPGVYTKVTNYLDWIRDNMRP

bovine beta trypsin [8] = molecular target: T1, bovine beta trypsin; test: as above
[9] = molecular target: T4, human high molecular weight uPA (human, UniProt P00749 21-431); test: as above
T4 construct: also called uPA-H

[10] = molecular target: human low molecular weight uPA (human, UniProt P00749 156-431); test: as above

T1 sequence (P00760 24-246 limits assumed): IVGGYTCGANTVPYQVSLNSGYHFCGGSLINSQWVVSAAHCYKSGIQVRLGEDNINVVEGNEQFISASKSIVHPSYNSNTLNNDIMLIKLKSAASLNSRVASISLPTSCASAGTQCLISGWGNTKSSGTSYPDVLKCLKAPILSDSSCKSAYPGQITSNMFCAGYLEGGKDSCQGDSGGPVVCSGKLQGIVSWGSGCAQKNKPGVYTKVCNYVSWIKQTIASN
tissue-type plasminogen activator, tPA (Genentech), sequence (P00750 36-562 limits assumed): as the sequence (P00750 36-562 limits assumed) above

B1: human BAIT (Brain-Associated Inhibitor of Tissue-Type Plasminogen Activator), mature protein expressed in baculovirus/Sf9 cells and purified (other)
chain: ATFPEEAIADLSVNMYNRLRATGEDENILFSPLSIALAMGMMELGAQGSTQKEIRHSMGYDSLKNGEEFSFLKEFSNMVTAKESQYVMKIANSLFVQNGFHVNEEFLQMMKKYFNAAVNHVDFSQNVAVANYINKWVENNTNNLVKDLVSPRDFDAATYLALINAVYFKGNWKSQFRPENTRTFSFTKDDESEVQIPMMYQQGEFYYGEFSDGSNEAGGIYQVLEIPYEGDEISMMLVLSRQEVPLATLEPLVKAQLVEEWANSVKKQKVEVYLPRFTVEQEIDLKDVLKALGITEIFIKDANLTGLSDNKEIFLSKAIHKSFLEVNEEGSEAAAVSGMIAISRMAVLYPQVIVDHPFFFLIRNRRTGTILFMGRVMHPETMNTSGHDFEEL
modifications: glycosylated (positions not stated)
notes: The preparation has mixed N-termini (also called BAIT protein); neural serpin
Question: B1 was tested. Which “half-maximal inhibitory concentration (IC50) of proteolytic activity, single step chromogenic assay” value (from here on “half-maximal inhibitory concentration”) [1] did it give?
Answer: Its value is 200 nM.

Question: And the “half-maximal inhibitory concentration” value (bovine beta trypsin [2])?
Answer: The value was 700 nM.

Question: What about the “half-maximal inhibitory concentration” value [3] of the same binder?
Answer: Its value is 1000 nM.

Question: What about the “fold faster reaction with tPA than PN-1” value (human two-chain tPA [4]) of the same binder?
Answer: Its value is about 20 fold.

Question: What about the “fold slower reaction with tPA than PAI-1” value (human two-chain tPA [5]) of the same binder?
Answer: Its value is about 30 fold.

Question: And the “fold faster rate of inhibition of tPA than of uPA” value (human two-chain tPA [6])?
Answer: Its value is about 25 fold.

Question: And the “K” value (plasmin)?
Answer: Its value is 0.15 µM.

Question: And the “k” value (plasmin)?
Answer: Its value is 5.2e-05 s⁻¹.

Question: What about the “ki” value (plasmin) of the same binder?
Answer: Its value is 360 M⁻¹ s⁻¹.

Question: What about the “K” value (thrombin) of the same binder?
Answer: Its value is 0.64 µM.

Question: And the “k” value (thrombin)?
Answer: The value was 0.000131 s⁻¹.

Question: What about the “ki” value (thrombin) of the same binder?
Answer: The value was 210 M⁻¹ s⁻¹.

Question: And the “K” value (human two-chain tPA [7])?
Answer: Its value is 0.12 µM.

Question: What about the “k” value (human two-chain tPA [7]) of the same binder?
Answer: The value was 0.078 s⁻¹.

Question: What about the “ki” value (human two-chain tPA [7]) of the same binder?
Answer: Its value is 620000 M⁻¹ s⁻¹.

Question: What about the “K” value (human single-chain tPA) of the same binder?
Answer: Its value is 2.1 µM.

Question: And the “k” value (human single-chain tPA)?
Answer: The value was 0.17 s⁻¹.

Question: And the “ki” value (human single-chain tPA)?
Answer: Its value is 80000 M⁻¹ s⁻¹.

Question: What about the “K” value (bovine beta trypsin [8]) of the same binder?
Answer: Its value is 0.16 µM.

Question: What about the “k” value (bovine beta trypsin [8]) of the same binder?
Answer: Its value is 0.0096 s⁻¹.

Question: What about the “ki” value (bovine beta trypsin [8]) of the same binder?
Answer: The value was 59000 M⁻¹ s⁻¹.

Question: And the “K” value [9]?
Answer: Its value is 0.2 µM.

Question: And the “k” value [9]?
Answer: Its value is 0.005 s⁻¹.

Question: What about the “ki” value [9] of the same binder?
Answer: Its value is 25000 M⁻¹ s⁻¹.

Question: What about the “K” value [10] of the same binder?
Answer: Its value is 1.4 µM.

Question: What about the “k” value [10] of the same binder?
Answer: Its value is 0.013 s⁻¹.

Question: What about the “ki” value [10] of the same binder?
Answer: Its value is 9200 M⁻¹ s⁻¹.
